The record followed here is article PMC11417369, “DNA sequence and chromatin differentiate sequence-specific transcription factor binding in the human malaria parasite Plasmodium falciparum”.

T1: AP2-LT D1 (Plasmodium falciparum, UniProt Q8IAM1 2520-2577)
T1 sequence: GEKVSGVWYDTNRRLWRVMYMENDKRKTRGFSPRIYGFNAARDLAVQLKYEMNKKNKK

B1: CACACA_negctrl_site1075 (dsDNA)
DNA 1: AATAAAAAAAAAAAAAAAAAAAAAAAGACACTAAAA
DNA 2: TTTTAGTGTCTTTTTTTTTTTTTTTTTTTTTTTATT
B2: CACACA_negctrl_site1698 (dsDNA)
DNA 1: TTATAATAAAAAAATTCCTAAGTCCGTATATATTAT
DNA 2: ATAATATATACGGACTTAGGAATTTTTTTATTATAA
B3: CACACA_negctrl_site1475 (dsDNA)
DNA 1: AATGATTTTCAATCGAAATGAAACTTAGAAGATATA
DNA 2: TATATCTTCTAAGTTTCATTTCGATTGAAAATCATT
B4: CACACA_negctrl_site908 (dsDNA)
DNA 1: TTATGGATGGACAATAATAAAATTTTTACTTTTATT
DNA 2: AATAAAAGTAAAAATTTTATTATTGTCCATCCATAA
B5: CACACA_negctrl_site982 (dsDNA)
DNA 1: ATTTTTTTTTTTTTTTTTTTTTTTTTTGAATTCACA
DNA 2: TGTGAATTCAAAAAAAAAAAAAAAAAAAAAAAAAAT
B6: CACACA_negctrl_site1682 (dsDNA)
DNA 1: TGTTATATCAATAATATATAATAATACCCTTCTTTT
DNA 2: AAAAGAAGGGTATTATTATATATTATTGATATAACA
B7: CACACA_negctrl_site338 (dsDNA)
DNA 1: TCGTCTCAATAATTATAATAAAAAAATTCCTAAGTC
DNA 2: GACTTAGGAATTTTTTTATTATAATTATTGAGACGA
B8: CACACA_negctrl_site1605 (dsDNA)
DNA 1: GTTTTTTTATAAAATTTTTATATAATTCTTTTATAA
DNA 2: TTATAAAAGAATTATATAAAAATTTTATAAAAAAAC
B9: CACACA_negctrl_site1062 (dsDNA)
DNA 1: TTATATGCATCCAAAAAGGAATGTTTTTAGAGAATC
DNA 2: GATTCTCTAAAAACATTCCTTTTTGGATGCATATAA
B10: CACACA_negctrl_site1493 (dsDNA)
DNA 1: TGTTCTTATTTTATAAGCATATAATTAATCATAATG
DNA 2: CATTATGATTAATTATATGCTTATAAAATAAGAACA
B11: CACACA_negctrl_site1633 (dsDNA)
DNA 1: AAAAATTAAAATATAACTAATTAATTTGTATTCATT
DNA 2: AATGAATACAAATTAATTAGTTATATTTTAATTTTT
B12: CACACA_negctrl_site1656 (dsDNA)
DNA 1: TTTTGATCTGAAGGAACCTAAAAAGGGAAGAGAAAA
DNA 2: TTTTCTCTTCCCTTTTTAGGTTCCTTCAGATCAAAA
B13: CACACA_negctrl_site667 (dsDNA)
DNA 1: TTATATATAAACATAAAAAGAAATATATTATGTATA
DNA 2: TATACATAATATATTTCTTTTTATGTTTATATATAA
B14: CACACA_negctrl_site122 (dsDNA)
DNA 1: TCTGGATTGGATTACAAGAAAATAAAATATAAAATA
DNA 2: TATTTTATATTTTATTTTCTTGTAATCCAATCCAGA
B15: CACACA_negctrl_site1333 (dsDNA)
DNA 1: AATTAAGTTAAACATTAAAAAAAACAAAAAATTAAA
DNA 2: TTTAATTTTTTGTTTTTTTTAATGTTTAACTTAATT
B16: CACACA_negctrl_site996 (dsDNA)
DNA 1: GAAAAAAAAAAAAAAAAAAAAAGGAAAAAAGTGAAA
DNA 2: TTTCACTTTTTTCCTTTTTTTTTTTTTTTTTTTTTC
B17: CACACA_negctrl_site1157 (dsDNA)
DNA 1: TTTTTGTATTCTACCTTAACAATCTTAAAGATTTTT
DNA 2: AAAAATCTTTAAGATTGTTAAGGTAGAATACAAAAA

The target of this series is T1, AP2-LT D1. Put plainly: gcPBM; about 25 ug protein; PBS, 1% milk, 0.2 mg/ml BSA, salmon testes DNA, 0.03% Triton X-100. To be noted: tags: N-terminal GST (pGEX-4T-1), kept; label: surface-attached array probe.
Turning to B1, the binding signal was 8.75 ln median PBM intensity, better of two orientations.

As to B2, the binding signal was 8.75 ln median PBM intensity, better of two orientations.

With B3, the binding signal was 8.78 ln median PBM intensity, better of two orientations.

On to B4, for which the binding signal is 8.82 ln median PBM intensity, better of two orientations.

With B5, the binding signal was 8.8 ln median PBM intensity, better of two orientations.

As for B6, the binding signal was 8.8 ln median PBM intensity, better of two orientations.

As to B7, the binding signal is 8.78 ln median PBM intensity, better of two orientations.

In the case of B8, the binding signal was 8.77 ln median PBM intensity, better of two orientations.

As for B9, the binding signal was 8.79 ln median PBM intensity, better of two orientations.

Take B10: the binding signal is 8.77 ln median PBM intensity, better of two orientations.

Consider B11, for which the binding signal is 8.76 ln median PBM intensity, better of two orientations.

Regarding B12, the binding signal is 8.82 ln median PBM intensity, better of two orientations.

For B13, the binding signal is 8.75 ln median PBM intensity, better of two orientations.

Regarding B14, the binding signal was 8.76 ln median PBM intensity, better of two orientations.

For the molecule B15, the binding signal was 8.76 ln median PBM intensity, better of two orientations.

On to B16, for which the binding signal is 8.82 ln median PBM intensity, better of two orientations.

In the case of B17, the binding signal is 8.8 ln median PBM intensity, better of two orientations.
